From patent publication US20220396813
Changes are numbered by the printed parent chain.

How the values were obtained:
Experiment in all cases: cell_activity
[1] = test system: T1, Rec29 WP_089415106.1 (Pantoea agglomerans); details: HEK293T inversion; background 1.305
T1 sequence: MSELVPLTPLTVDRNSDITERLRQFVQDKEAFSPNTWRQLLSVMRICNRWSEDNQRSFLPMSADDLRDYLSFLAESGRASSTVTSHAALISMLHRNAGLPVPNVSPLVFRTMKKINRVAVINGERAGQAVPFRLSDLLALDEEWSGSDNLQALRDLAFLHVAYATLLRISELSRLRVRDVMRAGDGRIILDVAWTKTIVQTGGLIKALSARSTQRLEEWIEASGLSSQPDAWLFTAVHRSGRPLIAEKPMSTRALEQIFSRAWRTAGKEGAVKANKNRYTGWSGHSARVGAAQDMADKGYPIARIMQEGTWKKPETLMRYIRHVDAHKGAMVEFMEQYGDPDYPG

[2] = biological target: T2, Rec142 (UniProt A0A0J6VB22); details: HEK293T inversion; background 4.4
T2 sequence: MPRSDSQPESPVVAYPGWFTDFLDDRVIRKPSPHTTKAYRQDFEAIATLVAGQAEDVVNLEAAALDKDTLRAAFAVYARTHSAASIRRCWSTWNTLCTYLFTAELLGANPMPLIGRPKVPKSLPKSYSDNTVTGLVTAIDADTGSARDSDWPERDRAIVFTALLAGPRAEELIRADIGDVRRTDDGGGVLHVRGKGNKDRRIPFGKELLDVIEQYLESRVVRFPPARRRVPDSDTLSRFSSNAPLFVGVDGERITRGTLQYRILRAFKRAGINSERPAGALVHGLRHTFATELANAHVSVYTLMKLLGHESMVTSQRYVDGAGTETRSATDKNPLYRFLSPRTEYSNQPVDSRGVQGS

[3] = test system: T3, Rec20 WP_090967054.1 (Pantoea sp. OV426); details: HEK293T inversion; background 4.93
T3 sequence: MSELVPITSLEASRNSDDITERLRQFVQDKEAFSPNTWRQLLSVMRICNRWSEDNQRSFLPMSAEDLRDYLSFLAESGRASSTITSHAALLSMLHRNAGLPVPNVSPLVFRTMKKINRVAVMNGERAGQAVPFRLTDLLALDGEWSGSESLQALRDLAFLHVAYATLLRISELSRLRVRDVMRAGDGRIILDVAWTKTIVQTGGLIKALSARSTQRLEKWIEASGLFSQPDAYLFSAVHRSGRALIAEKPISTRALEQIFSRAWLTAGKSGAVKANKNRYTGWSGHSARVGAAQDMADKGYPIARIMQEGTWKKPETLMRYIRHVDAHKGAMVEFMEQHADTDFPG

[4] = test system: T4, Rec19 WP_058958135.1; details: HEK293T inversion; background 0.0065
T4 sequence: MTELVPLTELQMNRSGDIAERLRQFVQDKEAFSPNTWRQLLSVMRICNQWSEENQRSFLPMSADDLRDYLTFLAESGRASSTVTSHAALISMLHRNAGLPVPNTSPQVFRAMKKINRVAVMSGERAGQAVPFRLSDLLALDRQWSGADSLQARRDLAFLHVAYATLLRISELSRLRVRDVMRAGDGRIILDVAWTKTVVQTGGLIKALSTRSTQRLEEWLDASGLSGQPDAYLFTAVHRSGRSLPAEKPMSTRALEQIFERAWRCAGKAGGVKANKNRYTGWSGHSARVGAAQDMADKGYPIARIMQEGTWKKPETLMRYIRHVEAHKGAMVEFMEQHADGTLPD

[5] = test system: T5, Rec39 WP_111138305.1 (Pantoea sp. ARC607); details: HEK293T inversion; background 6.6
T5 sequence: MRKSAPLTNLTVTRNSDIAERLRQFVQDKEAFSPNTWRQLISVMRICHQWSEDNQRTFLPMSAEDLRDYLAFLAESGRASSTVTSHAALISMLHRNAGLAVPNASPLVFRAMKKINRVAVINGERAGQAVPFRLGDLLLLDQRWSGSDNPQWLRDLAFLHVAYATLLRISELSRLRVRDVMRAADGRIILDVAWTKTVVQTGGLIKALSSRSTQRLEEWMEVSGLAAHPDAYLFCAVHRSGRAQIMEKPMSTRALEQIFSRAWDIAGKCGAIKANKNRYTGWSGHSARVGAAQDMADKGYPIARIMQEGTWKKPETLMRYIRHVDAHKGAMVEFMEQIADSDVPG

[6] = test system: T6, Rec31 WP_046103089.1 (Pantoea anthophila); details: HEK293T inversion; background 1.305
T6 sequence: T4 sequence with S135T, G341D, T342A

[7] = test system: T7, Rec33 WP_010671927.1 (Pantoea sp.); details: HEK293T inversion; background 6.6
T7 sequence: T1 sequence with E142K

[8] = test system: T8, Rec34 WP_109653747.1 (Pantoea agglomerans); details: HEK293T inversion; background 6.6
T8 sequence: T1 sequence with S135T, E142K, S145A, A210T, L225I, A254S, G339S

[9] = test system: T9, Rec37 WP_128085508.1 (Pantoea deleyi); details: HEK293T inversion; background 6.6
T9 sequence: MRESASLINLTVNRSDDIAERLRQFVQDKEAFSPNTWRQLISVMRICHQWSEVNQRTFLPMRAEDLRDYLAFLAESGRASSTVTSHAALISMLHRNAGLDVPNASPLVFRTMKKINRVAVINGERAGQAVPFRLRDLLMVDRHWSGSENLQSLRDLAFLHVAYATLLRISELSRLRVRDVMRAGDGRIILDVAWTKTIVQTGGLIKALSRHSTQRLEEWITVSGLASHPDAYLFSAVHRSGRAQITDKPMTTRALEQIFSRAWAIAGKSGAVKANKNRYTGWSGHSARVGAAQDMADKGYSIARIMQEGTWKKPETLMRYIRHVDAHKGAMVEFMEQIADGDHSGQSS

[10] = test system: T10, Rec38 WP_115764642.1 (Pantoea agglomerans); details: HEK293T inversion; background 6.6
T10 sequence: T1 sequence with T11M, S135T, E142K, S145A, D148E, A152S, A210T, L225I, A254S, G339S

[11] = test system: T11, Rec30 WP_022624268.1 (Pantoea sp.); details: HEK293T inversion; background 1.305
T11 sequence: T1 sequence with G98E, E142K

[12] = test system: T12, Rec36 WP_111534863.1 (Pantoea sp.); details: HEK293T inversion; background 6.6
T12 sequence: T1 sequence with G345D

[13] = test system: T13, Rec32 WP_069027120.1 (Pantoea agglomerans); details: HEK293T inversion; background 6.6
T13 sequence: T1 sequence with R49C, E75Q, S135T, E142K, S145A, A210T, L225I, L244Q, A254S, G339S

[14] = test system: T14, Rec35 WP_134161939.1 (Pantoea allii); details: HEK293T inversion; background 6.6
T14 sequence: T1 sequence with L10Q, S135T, E142K, S145A, A210T, L225I, A231V, A254S, G339S

[15] = test system: T15, Rec15 XP_012333305.1 (Plasmodium fragile); details: HEK293T inversion; background 2.178
T15 sequence: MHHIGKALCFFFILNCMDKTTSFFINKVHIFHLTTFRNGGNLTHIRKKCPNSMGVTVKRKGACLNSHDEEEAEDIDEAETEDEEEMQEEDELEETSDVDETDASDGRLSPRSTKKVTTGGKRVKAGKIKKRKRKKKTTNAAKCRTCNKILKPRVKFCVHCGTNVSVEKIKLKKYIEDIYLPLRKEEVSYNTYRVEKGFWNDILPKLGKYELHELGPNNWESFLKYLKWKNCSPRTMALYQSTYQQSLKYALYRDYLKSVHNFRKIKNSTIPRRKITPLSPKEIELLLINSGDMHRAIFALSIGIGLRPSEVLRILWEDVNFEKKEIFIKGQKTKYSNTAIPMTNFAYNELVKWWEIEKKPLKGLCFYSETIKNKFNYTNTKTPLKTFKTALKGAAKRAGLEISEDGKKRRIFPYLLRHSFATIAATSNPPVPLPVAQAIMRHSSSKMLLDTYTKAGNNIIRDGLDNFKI

[16] = test system: Rec83; details: HEK293T inversion; background 5.425
[17] = test system: Rec82; details: HEK293T inversion; background 5.03

“ATGACTTCGTATANNNNNNNNTATACGAAGTCAT (double strand) [Rec29 natural site]” gave an activity [1] of 36.9 % GFP+.
“CCGTCATGGATANNNNNNNNTATCCATGAAGC (double strand) [Rec142 natural site]” was tested, and the activity [2] was 20.2 % GFP+.
Sequence “TGACTTCGTATANNNNNNNNTATACGAAGCCA (double strand) [Rec19-20 natural site]” has an activity [3] of 70.7 % GFP+ and an activity [4] of 63.6 % GFP+.
“TGACTTCGTATANNNNNNNNTATACGAAGTCA (double strand) [Rec30-39 natural site]” showed an activity [5] of 42 % GFP+, an activity [6] of 21.3 % GFP+ and an activity [7] of 51 % GFP+. The activity [8] was 50.6 % GFP+, the activity [9] was 40 % GFP+ and the activity [10] was 44.5 % GFP+. The activity [11] was 32.1 % GFP+, the activity [12] was 44.2 % GFP+ and the activity [13] was 60 % GFP+. The activity [14] was 52 % GFP+.
For “TGCATATACATANNNNNNNNTATATATATGTA (double strand) [Rec15 natural site]”, the activity [15] was 5.91 % GFP+.
For “TGTGACTCCAGANNNNNNNNNTCTGGAGTCATA (double strand) [Rec82-83 natural site]”, the activity [16] was 65.2 % GFP+ and the activity [17] was 59 % GFP+.
